Test [1] deals with T1, 6H(hexa-histidine)-INI1/hSNF5 (human, UniProt Q12824 1-385).
T1 construct: also called His-INI1; source: Ni-NTA and hydroxylapatite purified
Put plainly: pull-down; glutathione sepharose beads with GST-SAP18 incubated with purified IN and INI1 together; Western blot. The conditions noted are these: both partners purified. (In western blotting, separated proteins are transferred to a membrane and probed.)

The target of test [2] is T1, 6H(hexa-histidine)-INI1/hSNF5. The test is described as follows: pull-down; glutathione sepharose 4B beads with 5 µg GST or GST-SAP18, incubated with 2 µg His-IN or His-INI1, one at a time; 20 mM HEPES-KOH pH 6.8, 200 mM NaCl, 0.1 mM EDTA, 2-5 mM DTT, 0.1% IGEPAL, 100 µg/ml ethidium bromide, 10 U DNaseI; Western blot. The following applies: both partners purified.

T1 sequence (Q12824 whole entry): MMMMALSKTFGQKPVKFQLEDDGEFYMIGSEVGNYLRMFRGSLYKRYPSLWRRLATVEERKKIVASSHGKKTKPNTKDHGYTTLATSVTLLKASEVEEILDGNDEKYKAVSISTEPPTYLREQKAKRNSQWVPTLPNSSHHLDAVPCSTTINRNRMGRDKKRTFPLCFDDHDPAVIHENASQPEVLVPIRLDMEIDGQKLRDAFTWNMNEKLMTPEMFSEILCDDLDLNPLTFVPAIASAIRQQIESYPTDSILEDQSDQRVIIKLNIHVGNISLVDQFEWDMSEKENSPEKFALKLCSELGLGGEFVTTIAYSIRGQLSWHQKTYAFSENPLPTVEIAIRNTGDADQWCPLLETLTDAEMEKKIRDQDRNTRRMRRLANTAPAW

B1: GST-SAP18 (natural protein, UniProt O00422 1-153, looked up)
chain: MAVESRVTQEEIKKEPEKPIDREKTCPLLLRVFTTNNGRHHRMDEFSRGNVPSSELQIYTWMDATLKELTSLVKEVYPEARKKGTHFNFAIVFTDVKRPGYRVKEIGSTMSGRKGTDDSMTLQSQKFQIGDYLDIAITPPNRAPPPSGRMRPY
notes: also called GST (glutathione-S-transferase)-SAP18; pGEX-SAP18
Consider B1, for which the binding result in test [1] and in test [2] was “binds” in each case.

(Values after PMC2685004, “Recruitment of a SAP18-HDAC1 Complex into HIV-1 Virions and Its Requirement for Viral Replication” (PLoS Pathogens, 2009).)
